Data: patent CN112409479A (INST FOR VIRAL DISEASE CONTROL AND PREVENTION CHINESE …, dated 2021)

Target: T1, 新型冠状病毒S1蛋白 (纯化) (SARS-CoV-2, UniProt P0DTC2 14-685)
T1 construct: domain: S1
Assay: ELISA, purified IgG on coated S1 protein

B1: 人源抗新冠病毒中和性抗体nCoV-121 全抗体IgG (antibody)
light: NFMLTQPHSVSESPGKTVTISCTRSSGSIASNYVQWYQQRPGSSPTTVIYEDNQRPSGVPDRFSGSIDSSSNSASLTISGLKTEDEADYYCQSYDSSNQWVFGGGTKLTVLGQPKAAPSVTLGQPKAAPSVTLFPPSSEELQANKATLVCLISDFYPGAVTVAWKADSSPVKAGVETTTPSKQSNNKYAASSYLSLTPEQWKSHRSYSCQVTHEGSTVEKTVAPTECS
heavy: not shown
  dilution still ELISA-positive: ≥ 64000 fold dilution from 0.2mg/ml
